Test results taken from US8008542B2, “Compositions, cells, and plants that include BKI1, a negative regulator of BRI1-mediated BR signaling” (The Salk Institute for Biological Studies, priority 2007, dated 2011).

T1: interaction between the kinase domains of BRI1 and BAK1 (Arabidopsis thaliana, UniProt O22476)
T1 construct: His (C); made in house; host or cells: BRI1-KD-HIS: TNT T7 coupled reticulocyte lysate (Promega)
T1 sequence (O22476 883-1158 limits assumed): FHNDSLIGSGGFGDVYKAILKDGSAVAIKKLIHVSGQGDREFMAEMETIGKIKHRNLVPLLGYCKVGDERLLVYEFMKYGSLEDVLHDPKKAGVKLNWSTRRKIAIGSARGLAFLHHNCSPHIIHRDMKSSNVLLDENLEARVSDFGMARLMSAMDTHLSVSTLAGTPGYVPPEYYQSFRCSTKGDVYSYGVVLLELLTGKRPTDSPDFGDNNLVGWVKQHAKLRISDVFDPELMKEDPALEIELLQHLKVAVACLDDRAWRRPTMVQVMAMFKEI

T2: endogenous BRI1 (Arabidopsis thaliana, UniProt O22476)
T2 construct: from tissue; host or cells: short-day grown seedlings of Col-0 transgenic plants expressing BKI1-FLAG
T2 sequence (O22476 24-1196): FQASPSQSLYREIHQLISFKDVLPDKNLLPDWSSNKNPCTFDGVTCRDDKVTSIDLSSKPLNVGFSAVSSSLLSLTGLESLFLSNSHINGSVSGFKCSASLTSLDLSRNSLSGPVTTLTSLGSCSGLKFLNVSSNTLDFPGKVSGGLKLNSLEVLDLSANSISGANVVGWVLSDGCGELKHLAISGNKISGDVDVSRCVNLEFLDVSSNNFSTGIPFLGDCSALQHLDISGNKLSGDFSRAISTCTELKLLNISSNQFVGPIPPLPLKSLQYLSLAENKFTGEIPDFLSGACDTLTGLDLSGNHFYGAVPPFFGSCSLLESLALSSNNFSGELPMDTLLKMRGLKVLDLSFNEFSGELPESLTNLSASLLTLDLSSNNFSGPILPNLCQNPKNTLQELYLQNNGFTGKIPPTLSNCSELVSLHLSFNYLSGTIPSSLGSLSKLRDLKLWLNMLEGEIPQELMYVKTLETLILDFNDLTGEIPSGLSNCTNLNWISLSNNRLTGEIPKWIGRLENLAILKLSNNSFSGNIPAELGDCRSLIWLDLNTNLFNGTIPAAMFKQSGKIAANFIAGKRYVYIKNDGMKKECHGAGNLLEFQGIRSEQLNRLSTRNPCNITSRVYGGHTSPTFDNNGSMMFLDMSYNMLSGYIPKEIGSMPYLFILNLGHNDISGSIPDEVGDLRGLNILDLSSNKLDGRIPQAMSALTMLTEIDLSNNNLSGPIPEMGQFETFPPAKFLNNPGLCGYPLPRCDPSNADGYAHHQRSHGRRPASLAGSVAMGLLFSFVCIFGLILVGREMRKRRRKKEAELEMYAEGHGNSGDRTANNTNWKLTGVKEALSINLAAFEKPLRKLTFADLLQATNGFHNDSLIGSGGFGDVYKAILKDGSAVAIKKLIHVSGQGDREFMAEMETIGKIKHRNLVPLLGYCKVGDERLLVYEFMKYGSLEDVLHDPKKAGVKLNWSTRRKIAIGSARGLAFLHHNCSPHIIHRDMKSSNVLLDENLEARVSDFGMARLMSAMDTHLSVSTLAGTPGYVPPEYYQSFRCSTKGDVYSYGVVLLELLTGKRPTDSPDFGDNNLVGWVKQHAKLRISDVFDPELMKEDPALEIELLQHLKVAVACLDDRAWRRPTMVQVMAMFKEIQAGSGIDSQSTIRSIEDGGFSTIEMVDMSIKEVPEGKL


What was measured:
[1] = target: T1, interaction between the kinase domains of BRI1 and BAK1; assay: GST pull-down of 35S-BRI1-KD-HIS by GST-BAK1-KD in vitro; format: binding; conditions: 10 μM of MBP-BKI1, five replicates, p=0.000013
Experimental: Seedlings were grown on MS medium containing 1 μM of BRZ220. The time of BL treatment is indicated. Top panels: BKI1-YFP; Lower panels: myriBKI1-YFP. […] Immunoblots with anti-GFP show levels of myriBKI1-YFP and BKI1-YFP. Bottom band: loading control. […] The total ^35S-Met labeled BRI1-KD-HIS co-precipitated by GST-BAK1-KD was defined as “1”. Five replicates were conducted. Error bars indicate standard error. 1, GST-BAK1-KD±35S-BRI1-KD-HIS; 2, GST-BAK1-KD+35S-BRI1-KD-HIS+10 μM of MBP; 3, GST-BAK1-KD+35S-BRI1-KD-HIS+10 μM of MBP-BKI1. […] Without BL, BRI1 kinase is kept in a basal state by both its own carboxyl terminal domain and by an interaction with BKI1. Brassinosteroid binding to the extracellular domain of BRI1 induces a conformational change of the kinase domain, leading to the phosphorylation of the C-terminal domain of BRI1 and BKI1, the dissociation of BKI1 from the plasma membrane, and the release of autoinhibition of BRI1. These events lead to the full activation of BRI1 and its association with BAK1 or other substrates. Plasma membrane-dissociated BKI1 may also regulate other unknown components in the brassinosteroid signaling cascade. BSU1 is a nuclear serine/threonine phosphatase involved in the dephosphorylation of BES1 (27). […]

endogenous BRI1 = target: T2, endogenous BRI1; assay: Immunoprecipitation from BKI1-FLAG plants; format: binding; conditions: immunoprecipitation with anti-FLAG
Experimental: Short-day grown seedlings of Col-0 and transgenic plants containing BKI1-FLAG were ground to a fine powder in liquid nitrogen, and solubilized with 2× extraction buffer (100 mM Tris-HCl pH 7.5, 300 mM NaCl, 2 mM EDTA, 1% Triton, 10% glycerol, and protease inhibitor). The extracts were centrifuged at 5,000×g for 10 min, and the resultant supernatant was then spun at 100,000×g for 90 min at 4° C. to remove membrane fractions. The supernatant was incubated with pre-washed anti-FLAG M2 agarose gel (Sigma) for three hours at 4° C., and the agarose gel was washed five times with TBS Buffer containing 0.02% Tween 20. The immunoprecipitates were eluted with 1×SDS sample buffer by boiling for 5 min, separated on a 4-20% Novex Tris-Glycine SDS-PAGE gel (Invitrogen), transferred to PVDF membrane (Millipore), and detected with either anti-BRI1 antibody for endogenous BRI1 or monoclonal anti-FLAG M2 (Sigma) for BKI1-FLAG. Signals were visualized using the Odyssey Infrared Imaging system (LI-COR Biosciences Inc.).

Molecule | inhibition of the interaction between the kinase domains of BRI1 and BAK1 [1] | interaction with endogenous BRI1 in vivo (endogenous BRI1)
MBP-BKI1: BKI1-maltose binding protein fusion (N-terminal MBP) (protein, left off: large carriers) METNLQQVKNSSQTFSEKQNPKQEASPSPISSTCSSPSHDFSFTISLQPLSSSSKHISPTLRSPSKTTSSYQQTDPFAVDLSPADEIFFHGHLLPLHLLSHLPVSPRTSTGSYNDGFTLPVKDILPDQPTNNNNNTENAITNISTEAKDDNTEDKAEGEIRVKTKPIKSFSLFGLSKWRKGFESNEREQEQQQQKIKKPMSLDLSHAVKKYIRMLFQKRGNGTQFWNRRQTSSYSFSSSLMGPNGNSKTMINGSYNKRDLIRGRRGELFSAPASMRTSPTNSGHLRVSTAGLSSSSGSTSSSSSDSTMEELQAAIQAAIAHCKNSSAVDRDDKVKDS | approximately 62% | –
BKI1-FLAG: BKI1 with three copies of FLAG fused at the C-terminal end (protein) METNLQQVKNSSQTFSEKQNPKQEASPSPISSTCSSPSHDFSFTISLQPLSSSSKHISPTLRSPSKTTSSYQQTDPFAVDLSPADEIFFHGHLLPLHLLSHLPVSPRTSTGSYNDGFTLPVKDILPDQPTNNNNNTENAITNISTEAKDDNTEDKAEGEIRVKTKPIKSFSLFGLSKWRKGFESNEREQEQQQQKIKKPMSLDLSHAVKKYIRMLFQKRGNGTQFWNRRQTSSYSFSSSLMGPNGNSKTMINGSYNKRDLIRGRRGELFSAPASMRTSPTNSGHLRVSTAGLSSSSGSTSSSSSDSTMEELQAAIQAAIAHCKNSSAVDRDDKVKDSDYKDDDDKVKLDYKDDDDKVKLDYKDDDDKVKL | – | interacted
